Laboratory results reported in doi:10.1101/2020.12.02.408906 (bioRxiv, 2020).

Biological target: the molecule itself
Experiment: cryo-EM structure

Protein | stoichiometry N
MycP5 protease (mycosin) of the ESX-5 type VII secretion system of M. tuberculosis H37Rv (enzyme) ISPPTIDPGALPPDGPPGPLAPMKQNAYCTEVGVLPGTDFQLQPKYMEMLNLNEAWQFGRGDGVKVAVIDTGVTPHPRLPRLIPGGDYVMAGGDGLSDCDAHGTLVASMIAAVPANGAVPLPSVPRRPVTIPTTETPPPPQTVTLSPVPPQTVTVIPAPPPEEGVPPGAPVPGPEPPPAPGPQPPAVDRGGGTVTVPSYSGGRKIAPIDNPRNPHPSAPSPALGPPPDAFSGIAPGVEIISIRQSSQAFGLKDPYTGDEDPQTAQKIDNVETMARAIVHAANMGASVINISDVMCMSARNVIDQRALGAAVHYAAVDKDAVIVAAAGDGSKKDCKQNPIFDPLQPDDPRAWNAVTTVVTPSWFHDYVLTVGAVDANGQPLSKMSIAGPWVSISAPGTDVVGLSPRDDGLINAIDGPDNSLLVPAGTSFSAAIVSGVAALVRAKFPELSAYQIINRLIHTARPPARGVDNQVGYGVVDPVAALTWDVPKGPAEPPKQLSAPLVVPQPPAPRDMVPIWVAAGGLAGALLIGGAVFGTATLMRRSRKQQ | 3
EccB5 of the ESX-5 type VII secretion system of M. tuberculosis H37Rv (natural protein) MAEESRGQRGSGYGLGLSTRTQVTGYQFLARRTAMALTRWRVRMEIEPGRRQTLAVVASVSAALVICLGALLWSFISPSGQLNESPIIADRDSGALYVRVGDRLYPALNLASARLITGRPDNPHLVRSSQIATMPRGPLVGIPGAPSSFSPKSPPASSWLVCDTVATSSSIGSLQGVTVTVIDGTPDLTGHRQILSGSDAVVLRYGGDAWVIREGRRSRIEPTNRAVLLPLGLTPEQVSQARPMSRALFDALPVGPELLVPEVPNAGGPATFPGAPGPIGTVIVTPQISGPQQYSLVLGDGVQTLPPLVAQILQNAGSAGNTKPLTVEPSTLAKMPVVNRLDLSAYPDNPLEVVDIREHPSTCWWWERTAGENRARVRVVSGPTIPVAATEMNKVVSLVKADTSGRQADQVYFGPDHANFVAVTGNNPGAQTSESLWWVTDAGARFGVEDSKEARDALGLTLTPSLAPWVALRLLPQGPTLSRADALVEHDTLPMDMTPAELVVPK | 6
EccC5 ATPase of the ESX-5 type VII secretion system of M. tuberculosis H37Rv (natural protein) MKRGFARPTPEKPPVIKPENIVLSTPLSIPPPEGKPWWLIVVGVVVVGLLGGMVAMVFASGSHVFGGIGSIFPLFMMVGIMMMMFRGMGGGQQQMSRPKLDAMRAQFMLMLDMLRETAQESADSMDANYRWFHPAPNTLAAAVGSPRMWERKPDGKDLNFGVVRVGVGMTRPEVTWGEPQNMPTDIELEPVTGKALQEFGRYQSVVYNLPKMVSLLVEPWYALVGEREQVLGLMRAIICQLAFSHGPDHVQMIVVSSDLDQWDWVKWLPHFGDSRRHDAAGNARMVYTSVREFAAEQAELFAGRGSFTPRHASSSAQTPTPHTVIIADVDDPQWEYVISAEGVDGVTFFDLTGSSMWTDIPERKLQFDKTGVIEALPRDRDTWMVIDDKAWFFALTDQVSIAEAEEFAQKLAQWRLAEAYEEIGQRVAHIGARDILSYYGIDDPGNIDFDSLWASRTDTMGRSRLRAPFGNRSDNGELLFLDMKSLDEGGDGPHGVMSGTTGSGKSTLVRTVIESLMLSHPPEELQFVLADLKGGSAVKPFAGVPHVSRIITDLEEDQALMERFLDALWGEIARRKAICDSAGVDDAKEYNSVRARMRARGQDMAPLPMLVVVIDEFYEWFRIMPTAVDVLDSIGRQGRAYWIHLMMASQTIESRAEKLMENMGYRLVLKARTAGAAQAAGVPNAVNLPAQAGLGYFRKSLEDIIRFQAEFLWRDYFQPGVSIDGEEAPALVHSIDYIRPQLFTNSFTPLEVSVGGPDIEPVVAQPNGEVLESDDIEGGEDEDEEGVRTPKVGTVIIDQLRKIKFEPYRLWQPPLTQPVAIDDLVNRFLGRPWHKEYGSACNLVFPIGIIDRPYKHDQPPWTVDTSGPGANVLILGAGGSGKTTALQTLICSAALTHTPQQVQFYCLAYSSTALTTVSRIPHVGEVAGPTDPYGVRRTVAELLALVRERKRSFLECGIASMEMFRRRKFGGEAGPVPDDGFGDVYLVIDNYRALAEENEVLIEQVNVIINQGPSFGVHVVVTADRESELRPPVRSGFGSRIELRLAAVEDAKLVRSRFAKDVPVKPGRGMVAVNYVRLDSDPQAGLHTLVARPALGSTPDNVFECDSVVAAVSRLTSAQAPPVRRLPARFGVEQVRELASRDTRQGVGAGGIAWAISELDLAPVYLNFAENSHLMVTGRRECGRTTTLATIMSEIGRLYAPGASSAPPPAPGRPSAQVWLVDPRRQLLTALGSDYVERFAYNLDGVVAMMGELAAALAGREPPPGLSAEELLSRSWWSGPEIFLIVDDIQQLPPGFDSPLHKAVPFVNRAADVGLHVIVTRTFGGWSSAGSDPMLRALHQANAPLLVMDADPDEGFIRGKMKGGPLPRGRGLLMAEDTGVFVQVAATEVRR | 2
EccD5 of the ESX-5 type VII secretion system of M. tuberculosis H37Rv (natural protein) MTAVADAPQADIEGVASPQAVVVGVMAGEGVQIGVLLDANAPVSVMTDPLLKVVNSRLRELGEAPLEATGRGRWALCLVDGAPLRATQSLTEQDVYDGDRLWIRFIADTERRSQVIEHISTAVASDLSKRFARIDPIVAVQVGASMVATGVVLATGVLGWWRWHHNTWLTTIYTAVIGVLVLAVAMLLLMRAKTDADRRVADIMLMSAIMPVTVAAAAAPPGPVGSPQAVLGFGVLTVAAALALRFTGRRLGIYTTIVIIGALTMLAALARMVAATSAVTLLSSLLLICVVAYHAAPALSRRLAGIRLPVFPSATSRWVFEARPDLPTTVVVSGGSAPVLEGPSSVRDVLLQAERARSFLSGLLTGLGVMVVVCMTSLCDPHTGQRWLPLILAGFTSGFLLLRGRSYVDRWQSITLAGTAVIIAAAVCVRYALELSSPLAVSIVAAILVLLPAAGMAAAAHVPHTIYSPLFRKFVEWIEYLCLMPIFPLALWLMNVYAAIRYR | 2
